Results published in patent US20220396632A1 (VERSEAU THERAPEUTICS, published 2022).
Residue numbers refer to the chain shown, from its start.

T1: Recombinant human PSGL-1(ECD)-hFc1 (R&D Systems, Cat. 3345-PS) (human, UniProt Q14242 42-305)
T1 construct: Bought; Gln42-Val295 counted on AAC50061; also called PSGL-1-Fc; PSGL-1-hFc1 chimera; not shown: human IgG1 Fc, Pro100-Lys330
T1 sequence: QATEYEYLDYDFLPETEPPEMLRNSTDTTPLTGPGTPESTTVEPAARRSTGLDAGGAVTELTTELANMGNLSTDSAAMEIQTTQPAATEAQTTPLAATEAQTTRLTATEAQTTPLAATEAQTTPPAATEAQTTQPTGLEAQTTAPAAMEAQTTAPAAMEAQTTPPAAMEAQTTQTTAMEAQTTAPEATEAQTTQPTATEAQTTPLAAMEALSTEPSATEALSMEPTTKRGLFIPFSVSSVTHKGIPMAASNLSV

T2: Biotin sY51 PSGL-1(42-62) peptide (human, sulfotyrosine at Y51; C-terminal Lys-biotin)
T2 construct: also called Y51(SO3) PSGL-1(42-62)
T2 peptide: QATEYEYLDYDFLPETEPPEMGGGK

T3: Biotin sY46 PSGL-1(42-62) peptide (human, sulfotyrosine at Y46; C-terminal Lys-biotin)
T3 peptide: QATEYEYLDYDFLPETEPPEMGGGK

T4: Biotin Y46,48,51(SO3) PSGL-1(42-62) peptide (human, sulfotyrosine at Y46, Y48 and Y51; C-terminal Lys-biotin)
T4 construct: also called fully sulfated N-terminal PSGL-1 peptide
T4 peptide: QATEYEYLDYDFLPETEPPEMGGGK

B1: 18K07 (antibody, V domains shown)
VH: QIQLVQSGPELKKPGETVKISCEASGYTFTTYGMNWVKQAPGKGLKWMGWINTYSGVPTYADDFQGRFAFSVETSATTAYLQINNLKNEDAATYFCARSDDTYYGFAYWGQGTLVTVSA
VL: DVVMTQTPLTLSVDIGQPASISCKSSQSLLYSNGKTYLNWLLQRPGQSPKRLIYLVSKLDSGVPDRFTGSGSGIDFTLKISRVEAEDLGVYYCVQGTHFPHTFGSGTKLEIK
notes: From mouse immunisation; only variable domains given
B2: 16E17 (antibody, V domains shown)
VH: QIQLVQSGPELKKPGETVKISCKASGYAFTTYGMSWVKQAPGKGLKWMGWINTYSGVPKYADDFKGRFAFSLETSASTAYLHINNLKNEDTATYFCGRHYYGSSYFDYWGQGTTLTVSS
VL: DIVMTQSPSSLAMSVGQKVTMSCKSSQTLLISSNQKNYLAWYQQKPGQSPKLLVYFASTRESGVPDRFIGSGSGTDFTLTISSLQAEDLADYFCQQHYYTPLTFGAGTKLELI
notes: as for B1
B3: 19N05 (antibody, V domains shown)
VH: B2 VH with A28T, K59T, Y60F, H82Q, Y94F, G97A, H99N, S103N, S104H
VL: DVQITQSPSYLAASPGETISINCRASNNINKYLAWYQEKPGKTNKLLIYSGSTLQSGIPSRFSGSGSGTDFTLTISSLEPEDFAMYHCQQHNYYPLTFGAGTKLELK
notes: as for B1
B4: 19L04 (antibody, IgG4, V domains shown)
VH: B2 VH with A28T, K59T, H82Q, N88I, G97A, S104H
VL: DIMMTQSPSSLAMSVGQKVTLRCKSSQSLLNSSNQKNYLAWYQQKPGQSPKLLVYFASTRESGVPVRFIGSGSGTDFTLTISSMQAEDLADYFCQQHYFSPLTFGAGTKLELK
notes: as for B1
B5: 10F01 (antibody, IgG4, V domains shown)
VH: EVQLVQSGGGLVQPGGSLRLSCAASGFTFSSYAMSWVRQAPGKGLEWVSALRGGDGGTYHADSVKGRFTISGDSSKNTLYLQMNSLRAEDTAVYYCARRMVGAAYAFDIWGQGTMVTVSS
VL: LPVLTQPHSVSESPGKTVTISCTRSSGSIADNFVQWYRQRPGSAPTTVIYEGDQRPSGVPGRFSGSIDSSSNSASLTISGLQTDDEADYYCQSFDSYNRRTHVVFGGGTKLTVL
B6: 03D07 (antibody, IgG4, V domains shown)
VH: EVKLLESGGGLVQPGGSLRLSCAASGFTFSSYALSWVRQAPGKGLEWVSAISGSGGNTYYADSVKGRFTISRDNSKNTLYLQMNSLRAEDTAVYYCAKVVGATNYWGQGTLVTVSS
VL: DIVMTQTPLSLPVTLGQPASISCRSSQSLVYSDGHTYLSWFHQRPGQSPRRLIYKVSIRDSGVPDRFSGSGSGTDFTLKISRVEAEDVGVYYCMQRLQIPLTFGGGTKVEIK
B7: 20I15 (antibody, V domains shown)
VH: EVKLVESGGGLVQPGGSLSLSCAASGFTFTDYYMSWVRQPPGKALEWLGFIRNKANGYTTEYSASVKGRFTISRDNSQSILYLQMNALRAEDSATYYCARTYLRRGYFDVWGTGTTVTVSS
VL: DIVLTQSPASLAVSLGQRATISCRASKSVSTSGYSYMHWFQQKPGQPPKLLIYLASNLESGVPARFSGSGSGTDFTLNIHPVEEEDAATYYCQHSRELPLTFGAGTKLELK
notes: From mouse immunisation; only variable domains given; also called 20115

What follows are binders tested against T1, Recombinant human PSGL-1(ECD)-hFc1 (R&D …) (assay: Octet tandem; competitor 18K07).
Procedure: (§1) Antibody binning was performed by ForteBio Octet® using a tandem assay format, with anti-human IgG biosensor-immobilized PSGL-1(ECD)-hFc1 protein, binding of competitor mAb followed by analyte antibody. As competition controls, the same antibody was competed against itself, and mAb competition was performed bidirectionally.
(§2) Antibody binning by tandem octet was performed by immobilizing 10 ug/mL PSGL-1(ECD)-hFc1 (R&D Systems, Cat. #3345-PS) in PBS, pH 7.4, onto anti-human IgG capture biosensors (ForteBio, Cat. #18-5060), binding of 100 nM competitor antibody for 300 sec., followed by binding of 100 nM of analyte mAb for 300 s in kinetic buffer (0.1% BSA in PBS containing 0.02% tween 20 and 0.05% sodium azide, pH 7.4). Synagis (Johnson et al. (1997) J. Infect. Dis. 176:1215-1224) served as a negative control mAb for competition. An Fc quench step (0.25 mg/mL human IgG Fcl; BioXcell, Cat. #BE0096, in kinetic buffer) was included when human mAbs were tested to prevent high background from the antibodies binding to the anti-human IgG biosensor. Biosensor regeneration buffer consisted of 10 mM glycine, pH 2.0.

In order of rising “% binding of analyte mAb” value:
1. B3  0%
2. B1  35.2%
3. B4  50.5%
4. B2  67.4%

These binders were tested against PSGL-1(ECD)-hFc1 M119A protein (Sino Biological) (human) (assay: ELISA; against WT PSGL-1(ECD)-hFc1).
Procedure: (§3) A typical ELISA experiment involved binding of a single concentration or serially diluted mAb in assay buffer (3% BSA in PBS containing 0.05% Tween®20, pH 7.4) onto BSA blocked high binding microtiter plate half-wells (Corning Cat. #3690), which contained PSGL-1 protein or streptavidin-immobilized biotin peptide. After incubation for 45 min. at 37° C., the plate was washed 3 times with wash buffer (PBS containing 0.05% Tween®20, pH 7.4), and an appropriate HRP-conjugated secondary antibody added (25 ul/well) (HRP goat anti-mouse or anti-human IgG). After 45 min. incubation at 37° C., the plate was washed and antibody bound to plate-immobilized target was determined at A450 nm using HRP substrate (3,3′5,5′-tetramethylbenzidine (TMB)). For each antibody, duplicate values were averaged and assay background subtracted.

In order of rising EC50/EC50WTprot:
1. B1  0.81 fold
2. B4  1.26 fold
3. B3  1.34 fold
4. B2  1.58 fold

What follows are binders tested against PSGL-1(ECD)-hFc1 I121A protein (Sino Biological) (human) (assay: ELISA; against WT PSGL-1(ECD)-hFc1).
Procedure: as §3

In order of falling EC50/EC50WTprot:
1. B2  2.8 fold
2. B4  1.42 fold
3. B3  1.39 fold
4. B1  0.89 fold

These binders were tested against PSGL-1(ECD)-hFc1 S116A protein (Sino Biological) (human) (assay: ELISA; against WT PSGL-1(ECD)-hFc1).
Procedure: as §3

In order of falling EC50/EC50WTprot:
1. B2  1.45 fold
2. B4  1.44 fold
3. B3  1.43 fold
4. B1  1.02 fold

These binders were tested against T1, Recombinant human PSGL-1(ECD)-hFc1 (R&D …) (assay: Octet tandem; competitor 15A7).
Procedure: as §1, §2

In order of rising “% binding of analyte mAb” value:
1. B2  21%
2. B1  23.9%
3. B4  28.3%
4. B3  36%

Target: T2, Biotin sY51 PSGL-1(42-62) peptide
Assay: capture ELISA; against 3 x sY peptide
Procedure: (§4) Two ELISA methods were performed. One procedure detected mAb binding to its plate-immobilized target and the other measured the immobilized antibody's ability to capture biotinylated PSGL-1₄₂₋₆₂. […] The plate was incubated for 45 min at 37° C. Plates were washed 3 times with wash buffer (PBS containing 0.05% tween 20, pH 7.4) and a single concentration (2 to 500 nM) or serially diluted (0.002-100 nM) anti-PSGL-1 mAb was added (25 ul/well) in assay buffer into appropriate wells. The plate was incubated for 45 min at 37° C., washed 3 times, and an appropriate HRP-conjugated secondary antibody added (25 ul/well) (HRP goat anti-mouse or anti-human IgG). After 45 min incubation at 37° C., the plate was washed, and antibody bound to plate-immobilized target was determined at A450 nm using HRP substrate (3,3′,5,5′-etramethylbenzidine (TMB)). For each antibody, duplicate values were averaged and assay background was subtracted. Except for the following, ELISAs involving plate-immobilized mAb capturing of biotinylated PSGL-1₄₂₋₆₂ peptides was performed in the same manner as described above: 3 ug/mL/25 ul per well of mAb was coated directly onto microtiter plate wells; biotinylated unmodified or sulfotyrosine PSGL-1₄₂₋₆₂ was serially diluted (3 nM-3 uM) into appropriate wells, and antibody-bound peptide was detected using HRP-streptavidin (Jackson Immunoresearch, Cat. #016-030-084).

In order of rising “EC50/EC50 3x(SO3)Y” value:
1. B6  ~5 fold
2. B7  ~10 fold
3. B5  ~36 fold

Target: T3, Biotin sY46 PSGL-1(42-62) peptide
Assay: capture ELISA; against 3 x sY peptide
Procedure: as §4

In order of falling “EC50/EC50 3x(SO3)Y” value:
1. B5  ~2000 fold
2. B6  25 fold
3. B7  ~10 fold

Target: T4, Biotin Y46,48,51(SO3) PSGL-1(42-62) …
Assay: capture ELISA; against 3 x sY peptide
Procedure: as §4

In order of falling “EC50/EC50 3x(SO3)Y” value:
1. B5  1 fold
2. B6  1 fold
3. B7  1 fold

What follows are binders tested against T1, Recombinant human PSGL-1(ECD)-hFc1 (R&D …) (assay: Octet tandem; competitor 19N05).
Procedure: as §1, §2

In order of rising “% binding of analyte mAb” value:
1. B1  0%
2. B2  5.1%
3. B4  44.3%
4. B3  69.4%

What follows are binders tested against T1, Recombinant human PSGL-1(ECD)-hFc1 (R&D …) (assay: Octet tandem; competitor 19L04).
Procedure: as §1, §2

In order of falling “% binding of analyte mAb” value:
1. B3  39.4%
2. B4  35.9%
3. B1  0%
4. B2  0%

These binders were tested against T1, Recombinant human PSGL-1(ECD)-hFc1 (R&D …) (assay: Octet tandem; competitor 18F17).
Procedure: as §1, §2

In order of falling “% binding of analyte mAb” value:
1. B2  93.8%
2. B1  91.4%
3. B4  81.4%
4. B3  65.3%

What follows are binders tested against T1, Recombinant human PSGL-1(ECD)-hFc1 (R&D …) (assay: Octet tandem; competitor 19J23).
Procedure: as §1, §2

In order of falling “% binding of analyte mAb” value:
1. B3  125%
2. B4  104%
3. B2  103%
4. B1  92.9%
